In article PMC8024323, “Drosophila TNFRs Grindelwald and Wengen bind Eiger with different affinities and promote distinct cellular functions” (Nature Communications, 2021):

B1: Grnd^30–97 (extracellular domain of Grindelwald) [Drosophila melanogaster] / Egr^146–409 (extracellular portion of Eiger, His6-tagged) [Drosophila melanogaster] (parent complex)
chain 1: GESRDCHGTICHPVNEFCYVATERCHPCIEVCNNQTHNYDAFLCAKECSAYKTFEPLKAEMLDIQNTQ
chain 2: GADYEDYTDMLNKLNNAHTGTTPTSETTAEGEGETDSASSASNDDNVFDDFTSYNAHKKKQERKSRSIADVRNEEQNIQGNHTELQEKSSNEATSKESPAPLHHRRRMHSRHRHLLVRKARSEDSRPAAHFHLSSRRRHQGSMGYHGDMYIGNDNERNSYQGHFQTRDGVLTVTNTGLYYVYAQICYNNSHDQNGFIVFQGDTPFLQCLNTVPTNMPHKVHTCHTSGLIHLERNERIHLKDIHNDRNAVLREGNNRSYFGIFKV

Variants of: B1
Test: ITC; parent: 30.8 nM

Kd | Variant
4.8 µM | chain 1 GESRDCHGTICHPVNEFCYVATERCHPCIEVCNNQTANYDAFLCAKECSAYKTFEPLKAEMLDIQNTQ [chain 1 H37A]
4.5 µM | chain 1 GESRDCHGTICHPVNEFCYVATERCHPCIEVCNNQTHAYDAFLCAKECSAYKTFEPLKAEMLDIQNTQ [chain 1 N38A]
1.3 µM | chain 1 GESRDCHGTICHPVNEFCYVATARCHPCIEVCNNQTHNYDAFLCAKECSAYKTFEPLKAEMLDIQNTQ [chain 1 E23A]
